Experimental findings from patent US20250339529A1 (MINK THERAPEUTICS, published 2025) are described below.

The term Kd denotes the equilibrium constant for the complex coming apart. Usually koff stands for a measure of how fast the partners let go of each other. The kon is the rate constant with which the complex forms. Read a high kon as faster complex formation.

Test [1] deals with T1, BCMA-Fc antigen (UniProt Q02223 1-54).
T1 construct: Immobilized on a protein A chip
T1 sequence (looked up): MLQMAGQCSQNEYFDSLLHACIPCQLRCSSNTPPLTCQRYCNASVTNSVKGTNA
The experiment in a line: flow cytometry, lentivirally transduced iNKT cells stained with BCMA-Fc and A647 anti-human IgG Fc; Donor 1, Transduced; Non transduced control 2.00. As to the method: (§1) Purified and a-GalCer expanded iNKT cells from 2 donors were stimulated with TransAct (Miltenyi) and transduced with lentivirus (MOI 3) encoding for various 2nd Generation BCMA-CAR molecule and secreted IL-15. Constructs including F6G-Var2 IL-15, F6G variant 2 (no IL-15), F1G-IL-15, bb2121-IL-15, and CD19-CAR-IL-15 were tested. Cells were expanded for 10 to 12 days then transduced cells were co-cultured with K562 cells expressing BCMA at a ratio iNKT:K562 of 1:1. Cells were cultured and enriched with media supplemented with supporting cytokines IL-2 (100 IU/mL), IL-15 (100 UI/mL) and IL-21 (20 IU/mL). […]
(§2) Transduced cells pre-co-culture and enriched cells post co-culture with K562-BCMA were analyzed for CAR expression by flow cytometry (FIG. 17). iNKT cells were incubated with a LIVE/DEAD (Biolegend) reagents to separate live from dead cells and then stained for cell surface markers BCMA-CAR or CD19-CAR, BUV395 CD8 (BD, clone RPA-T8) and BUV563 CD4 (BD, clone OKT4). BCMA-CAR expression was detected with an unconjugated, primary BCMA-Fc reagent (AcroBiosystems) while CD19 CAR expression was detected with an unconjugated, primary CD19-Fc reagent (AcroBiosystems). […]
For orientation: Flow cytometry measures light scatter and fluorescence of single cells or particles in a stream.

The target in test [2] is T1, BCMA-Fc antigen. The experiment in a line: flow cytometry, lentivirally transduced iNKT cells stained with BCMA-Fc and A647 anti-human IgG Fc; Donor 2, Transduced; Non transduced control 0.74. As to the method: as §1, §2
For test [3], the target named is T1, BCMA-Fc antigen. The experiment in a line: flow cytometry, lentivirally transduced iNKT cells stained with BCMA-Fc and A647 anti-human IgG Fc; Donor 1, Enriched on K562-BCMA; Non transduced control 7.76. The method, then: as §1, §2
For test [4], the target named is T1, BCMA-Fc antigen. The test can be described thus: flow cytometry, lentivirally transduced iNKT cells stained with BCMA-Fc and A647 anti-human IgG Fc; Donor 2, Enriched on K562-BCMA; Non transduced control 1.34. As to the method:
as §1, §2

Test [5] concerns the target T2, BCMA antigen (UniProt Q02223 1-54, limits assumed).
T2 construct: also called wild type BCMA
T2 sequence (looked up): T1 sequence (looked up)
The test can be described thus: SPR (Biacore T200), IgG captured on a protein A chip, huBCMA as analyte, 1:1 Binding model, 25 C. The method, then: (§3) To test the affinity of BCMA F6G variants their binding domains were expressed as IgGs and captured to a protein A chip. BCMA antigen was flowed over the chip at […] concentrations. Experiment was run on Biacore T200. […] The CARs were expressed as IgGs and captured to a protein A chip. BCMA antigen was flowed over the chip at […]. concentrations. Experiment was run on Biacore T200.

Test [6] deals with T2, BCMA antigen. The experiment in a line: SPR (Biacore 4000), cell-free expressed scFv on BCMA antigen. The text has this: Further, a germlined version of F6 (F6G) was affinity matured by a combination of two methods: Accelerated Drug Discovery (ADD) approach and affinity maturation of by phage libraries. FIGS. 9A-9C describe the ADD approach. FIG. 9A is a schematic representation of the CDR positions undergone mutagenesis. Each amino acid in the heavy and light CDRs was substituted with 8 different amino acids; Tyr, Ser, Pro, Leu, his, Gly, Asp, Asn. Fragments containing single amino acids substitutions were generated by mutagenesis PCR. The PCR fragments were then used as a template to express the scFv in a cell free system. Affinity KD (M) values of mutant scFvs binding to BCMA antigen. Experiment was run in Biacore 4000. The dotted line indicates the binding of the parental F6G clone. KD below the dotted line means improvement in affinity. […] Individual Biacore sensorgrams for E to Y substitution in position 49 of CDRL2 are shown (FIG. 9C).

Test [7] addresses T2, BCMA antigen. The test can be described thus: flow cytometry, iNKT cells transiently transfected with BCMA CAR-RFP mRNA and stained with soluble BCMA-APC, two donors. As to the method: INKT cells from two donors were transiently transfected with F6G variants and anti-BCMA-CAR iNKT cell-mediated killing of tumor cells were tested. Flow cytometry analysis of RFP expression to show CAR expression and antigen binding with BCMA-APC in BCMA-CAR iNKTs (FIGS. 13A-13C). The level of BCMA expression on each tumor cell line was assessed by flow cytometry where left peak show isotype staining and right peak show BCMA expression (FIG. 13D). iNKT cells expressing anti-BCMA CAR (as shown in FIG. 13A) were co-cultured with tumor cell lines endogenously expressing BCMA or K562 for 24 hrs at 3 different effector-to-target ratios. After 24 hr co-coculture, cytotoxicity assay was analyzed by flow cytometry for percentage of dead target cells (FIG. 13E), percentage of CD69/CD25 co-expressing iNKT cells (FIG. 13F) and percentage of 4-1BB expressing iNKT cells (FIG. 13G).

Test [8] has as its target T2, BCMA antigen. The experiment in a line: SPR (Biacore T200), IgG captured on a protein A chip, huBCMA as analyte, 1:1 Binding model, 25 C; same panel as in FIG. 11. The method, then:
as §3
A general note: Surface plasmon resonance follows binding to a sensor surface in real time, without labels.

Numbering of substitutions follows the chain as printed. Names may count otherwise.

With “bb2121 CAR on iNKT cells (clinical benchmark)”, the % of cells in the CAR+ gate in test [1] amounted to 15.9%; in test [2], 36.2%; in test [3] it was 95.5%; in test [4] it was 94.1%.
Consider Bb2121 huIgG1 (antibody), for which, in test [5], the Kd came to 1.67 nM, the koff was 0.00484 s⁻¹ and the kon is 2.89e+06 M⁻¹ s⁻¹.

B1: F6G scFv (germlined F6, parental clone of the ADD mutagenesis) (scFv)
scFv: QVQLVQSGAEVKKPGASVKVSCKASGYTFTGYYMHWVRQAPGQGLEWMGWMNPNSGNTGYAQKFQGRVTMTRNTSISTAYMELSSLRSEDTAVYYCARAQWEPLDYWGQGTLVTVSSGGGGSGGGGSGGGASSYELTQPPSVSVSPGQTARITCSGDALPKKYTYWYQQKSGQAPVLVIYEDTKRPSGIPERFSGSSSGTMATLTISGAQVEDEADYYCLSTDPTGQESVFGGGTKLTVLGQP
notes: scFv expressed in a cell free system from PCR fragments; also called parental F6G clone; germline F6G
Turning to B1, the binding result in test [6] is recorded as “binds”.

B2: F6G scFv with E to Y substitution in position 49 of CDRL2 (scFv)
scFv: B1 scFv with E181Y
notes: Cell free expressed scFv; also called E to Y substitution in position 49 of light CDRL2
For B2, the binding result in test [6] was “binds”.

B3: F1G scFv CAR on iNKT cells (other)
chain: QVQLVQSGAEVKKPGASVKVSCKASGYTFTSYGISWVRQAPGQGLEWMGWISAYNGNTYYAEDLQGRLTMTTDTSTSTAYMELRSLRSDDTAVYYCAREGSYYDSSGYYLPYWGQGTLVTVSSGGGGSGGGGSGGGASQSALTQPRSVSGSPGQSVTISCTGTSSDVGAYNYVSWYQQHPGKAPKLMIYDVTERPSGVPDRFSGSKSGNTASLTISGLQAEDEADYYCSSYTSSSIAFGGGTKLTVLGQPAAATTTPAPRPPTPAPTIASQPLSLRPEACRPAAGGAVHTRGLDFACDIYIWAPLAGTCGVLLLSLVITLYCKRGRKKLLYIFKQPFMRPVQTTQEEDGCSCRFPEEEEGGCELRVKFSRSADAPAYQQGQNQLYNELNLGRREEYDVLDKRRGRDPEMGGKPRRKNPQEGLYNELQKDKMAEAYSEIGMKGERRRGKGHDGLYQGLSTATKDTYDALHMQALPPR
notes: Chimeric antigen receptor on iNKT cells with secreted IL-15; also called F1G-IL-15; F1G IL-15
In the case of B3, the “% of cells in the CAR+ gate” value was determined as 20.7% in test [1], 20.9% in test [2], 31.4% in test [3] and 93.1% in test [4].

B4: F6G-Var1 (other)
CAR polypeptide: QVQLVQSGAEVKKPGASVKVSCKASGYTFTGYYMHWVRQAPGQGLEWMGWMNPNSGNTGYAQKFQGRVTMTRNTSISTAYMELSSLRSEDTAVYYCARAQWEPLDYWGQGTLVTVSSGGGGSGGGGSGGGASSYELTQPPSVSVSPGQTARITCSGDALPKKYTYWYQQKSGQAPVLVIYYDTKRPSGIPERFSGSSSGTMATLTISGAQVEDEADYYCLSTDPTGQESVFGGGTKLTVLGQPAAATTTPAPRPPTPAPTIASQPLSLRPEACRPAAGGAVHTRGLDFACDIYIWAPLAGTCGVLLLSLVITLYCKRGRKKLLYIFKQPFMRPVQTTQEEDGCSCRFPEEEEGGCELRVKFSRSADAPAYQQGQNQLYNELNLGRREEYDVLDKRRGRDPEMGGKPRRKNPQEGLYNELQKDKMAEAYSEIGMKGERRRGKGHDGLYQGLSTATKDTYDALHMQALPPR
notes: also called F6G-Var1 CAR on iNKT cells (transient, CAR-RFP mRNA)
On to B4, for which the binding result in test [7] was “binds”.

B5: F6G-Var6 (other)
CAR polypeptide: B4 CAR polypeptide with G31E, H35K, S55T, N57K
notes: also called F6G-Var6 CAR on iNKT cells (transient, CAR-RFP mRNA)
As to B5, the binding result in test [7] is listed as “binds”.

B6: F6G-Var4 (other)
CAR polypeptide: B4 CAR polypeptide with D223H, T225A
notes: also called F6G-Var4 CAR on iNKT cells (transient, CAR-RFP mRNA)
Turning to B6, in test [7], the binding result is recorded as “binds”.

B7: F6G-Var5 (other)
CAR polypeptide: B4 CAR polypeptide with D223N, Q227H
notes: also called F6G-Var5 CAR on iNKT cells (transient, CAR-RFP mRNA)
Consider B7, for which, in test [7], the binding result is “binds”.

B8: F6G-Var3 (other)
CAR polypeptide: B4 CAR polypeptide with H35Q, N54I, D223N, Q227H
notes: also called F6G-Var3 CAR on iNKT cells (transient, CAR-RFP mRNA)
With B8, in test [7], the binding result is listed as “binds”.

B9: F6G (other)
CAR polypeptide: B4 CAR polypeptide with Y181E
notes: also called F6G CAR on iNKT cells (transient, CAR-RFP mRNA)
Regarding B9, the binding result in test [7] is given as “binds”.

B10: F6Gvar2 (antibody, V domains shown)
VH: QVQLVQSGAEVKKPGASVKVSCKASGYTFTGYYMQWVRQAPGQGLEWMGWMNPISGNTGYAQKFQGRVTMTRNTSISTAYMELSSLRSEDTAVYYCARAQWEPLDYWGQGTLVTVSS
VL: SYELTQPPSVSVSPGQTARITCSGDALPKKYTYWYQQKSGQAPVLVIYYDTKRPSGIPERFSGSSSGTMATLTISGAQVEDEADYYCLSTHPAGQESVFGGGTKLTVLG
In the case of B10, in test [8], the Kd was determined as 2.35 nM, the koff stood at 0.000325 s⁻¹ and the kon was determined as 138000 M⁻¹ s⁻¹. Also, in test [5], the affinity, expressed as Kd, was 2.35 nM; the koff was 0.000325 s⁻¹; the kon stood at 138000 M⁻¹ s⁻¹.

B11: F6Gvar3 (antibody, V domains shown)
VH: B10 VH
VL: B10 VL with H91N, A93T, Q95H
In test [5], B11 registered a Kd of 2.12 nM, a koff of 0.000317 s⁻¹ and a kon of 150000 M⁻¹ s⁻¹.

B12: F6G huIgG1 (antibody, V domains shown)
VH: B10 VH with Q35H, I54N
VL: B10 VL with Y49E, H91D, A93T
notes: also called germline F6G expressed as human IgG1
In test [5], B12 returned a Kd of 97.8 nM, a koff of 0.0197 s⁻¹ and a kon of 201000 M⁻¹ s⁻¹.
